Measured values reported in US20210147486A1 (VIB VZW, published 2021).
Substitutions are numbered along the chain they refer to.

Key:
[1] = target: T1, CsgG Y51S/N55V/F56Q/N91R/K94Q/R97W-del(V105-I107) pore containing the C terminal strep tag (Escherichia coli, UniProt P0AEA2 16-277); assay: pore 8; complex made by incubating pore and peptide; DNA translocation, signal:noise
T1 construct: not shown: C-terminal Strep tag
T1 chain: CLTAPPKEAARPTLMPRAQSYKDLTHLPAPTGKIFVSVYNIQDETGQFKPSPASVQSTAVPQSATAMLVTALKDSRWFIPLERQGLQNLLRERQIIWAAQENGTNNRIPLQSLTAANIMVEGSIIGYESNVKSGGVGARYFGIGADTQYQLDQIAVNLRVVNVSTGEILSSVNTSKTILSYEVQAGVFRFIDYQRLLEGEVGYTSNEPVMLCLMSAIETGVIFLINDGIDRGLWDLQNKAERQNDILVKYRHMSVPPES

[2] = target: T2, CsgG Y51A/F56A/N91R/K94Q/R97W-del(V105-I107) pore containing the C terminal strep tag (Escherichia coli, UniProt P0AEA2 16-277); assay: pore 4; complex made by incubating pore and peptide; DNA translocation, signal:noise
T2 construct: not shown: C-terminal Strep tag
T2 chain: T1 chain with S51A, V55N, Q56A

[3] = target: T3, CsgG Y51A/F56I/N91R/K94Q/R97W-del(V105-I107) pore containing the C terminal strep tag (Escherichia coli, UniProt P0AEA2 16-277); assay: pore 5; complex made by incubating pore and peptide; DNA translocation, signal:noise
T3 construct: F561 read as F56I; also called Y51A/F561/N91R/K94Q/R97W-del(V105-I107) (so in the source); not shown: C-terminal Strep tag
T3 chain: T1 chain with S51A, V55N, Q56I

[4] = target: T4, CsgG Y51A/F56Q/N91R/K94Q/R97W-del(V105-I107) pore containing the C terminal strep tag (Escherichia coli, UniProt P0AEA2 16-277); assay: pore 1; complex made by incubating pore and peptide; DNA translocation, signal:noise
T4 construct: not shown: C-terminal Strep tag
T4 chain: T1 chain with S51A, V55N

[5] = target: T5, CsgG Y51A/N55V/F56Q/N91R/K94Q/R97W-del(V105-I107) pore containing the C terminal strep tag (Escherichia coli, UniProt P0AEA2 16-277); assay: reconstitution of purified pore with synthetic peptide; SDS-PAGE after heating
T5 construct: also called Y51A/F56Q/N55V/N91R/K94Q/R97W-del(V105-I107); not shown: C-terminal Strep tag
T5 chain: T1 chain with S51A

[6] = target: T6, CsgG Y51A/N55I/F56Q/N91R/K94Q/R97W-del(V105-I107) pore containing the C terminal strep tag (Escherichia coli, UniProt P0AEA2 16-277); assay: pore 2; complex made by incubating pore and peptide; DNA translocation, signal:noise
T6 construct: N551 read as N55I; also called Y51A/N551/F56Q/N91R/K94Q/R97W-del(V105-I107) (so in the source); not shown: C-terminal Strep tag
T6 chain: T1 chain with S51A, V55I

[7] = target: T7, CsgG Y51T/N55V/F56Q/N91R/K94Q/R97W-del(V105-I107) pore containing the C terminal strep tag (Escherichia coli, UniProt P0AEA2 16-277); assay: pore 9; complex made by incubating pore and peptide; DNA translocation, signal:noise
T7 construct: not shown: C-terminal Strep tag
T7 chain: T1 chain with S51T

[8] = target: T8, CsgG Y51S/N55A/F56Q/N91R/K94Q/R97W-del(V105-I107) pore (Escherichia coli, UniProt P0AEA2 16-277); assay: pore 7; complex made by incubating pore and peptide; DNA translocation, signal:noise
T8 chain: T1 chain with V55A

[9] = target: T9, CsgG Y51A/F56V/N91R/K94Q/R97W-del(V105-I107) pore (Escherichia coli, UniProt P0AEA2 16-277); assay: pore 6; complex made by incubating pore and peptide; DNA translocation, signal:noise
T9 chain: T1 chain with S51A, V55N, Q56V

Measured: binding result

GTMTFQFRNPNFGGNPNNGAFLLNSAQAQNSYKDP [CsgF-(1-35) synthetic peptide]
binds: all assays above
